Changes are numbered by the printed parent chain. In names and notes the source's numbering stands.
B1: bispecific antibody CS9 (bispecific antibody, human IgG1, kappa)
light: DIVMTQSPSSLTVTAGEKVTMSCKSSQSLLNSGNQKNYLTWYQQKPGQPPKLLIYWASTRESGVPDRFTGSGSGTDFTLTISSVQAEDLAVYYCQNDYSYPFTFGSGTKLEIKRTVAAPSVFIFPPSDEQLKSGTASVVCLLNNFYPREAKVQWKVDNALQSGNSQESVTEQDSKDSTYSLSSTLTLSKADYEKHKVYACEVTHQGLSSPVTKSFNRGEC
heavy 1: QVQLQQPGAELVRPGASVKLSCKASGYTFTSYWINWVKQRPGQGLEWIGNIYPSDSYTNYNQKFKDKATLTVDKSSSTAYMQLSSPTSEDSAVYYCTRSWRGNSFDYWGQGTTLTVSSASTKGPSVFPLAPSSKSTSGGTAALGCLVKDYFPEPVTVSWNSGALTSGVHTFPAVLQSSGLYSLSSVVTVPSSSLGTQTYICNVNHKPSNTKVDKKVEPKSCDKTHTCPPCPAPPVAGPSVFLFPPKPKDTLMISRTPEVTCVVVDVSHEAPEVQFNWYVDGVEVHNAKTKPREEQFNSTFRVVSVLTVVHQDWLNGKEYKCKVSNKGLPAPIEKTISKTKGQPREPQVYTLPPCRDELTKNQVSLWCLVKGFYPSDIAVEWESNGQPENNYKTTPPVLDSDGSFFLYSKLTVDKSRWQQGNVFSCSVMHEALHNHYTQKSLSLSPGK
heavy 2: not shown
notes: CSBODY structure: two 175D10 Fab arms; second heavy chain (first heavy entry) and first heavy chain with anti-CD3 scFv (L2K) between CH1 and Fc2
B2: bispecific antibody CS2 (bispecific antibody, human IgG1, kappa)
light: B1 light
heavy 1: B1 heavy 1
heavy 2: QVQLQQPGAELVRPGASVKLSCKASGYTFTSYWINWVKQRPGQGLEWIGNIYPSDSYTNYNQKFKDKATLTVDKSSSTAYMQLSSPTSEDSAVYYCTRSWRGNSFDYWGQGTTLTVSSASTKGPSVFPLAPSSKSTSGGTAALGCLVKDYFPEPVTVSWNSGALTSGVHTFPAVLQSSGLYSLSSVVTVPSSSLGTQTYICNVNHKPSNTKVDKKVEPKSCDKTHTAPAPAPAPAPAPAPAPQVQLVESGGGVVQPGRSLRLSCAASGFTFSTYAMNWVRQAPGKGLEWVARIRSKYNNYATYYADSVKDRFTISRDDSKNTLYLQMNSLRAEDTAVYYCARHGNFGNSYVSWFAYWGQGTLVTVSSGGGGSGGGGSGGGGSQTVVTQEPSLTVSPGGTVTLTCRSSTGAVTTSNYANWVQQKPGQAPRGLIGGTNKRAPGVPARFSGSLLGGKAALTLSGVQPEDEAEYYCALWYSNLWVFGGGTKVEIKGGGGSDKTHTCPPCPAPPVAGPSVFLFPPKPKDTLMISRTPEVTCVVVDVSHEAPEVQFNWYVDGVEVHNAKTKPREEQFNSTFRVVSVLTVVHQDWLNGKEYKCKVSNKGLPAPIEKTISKTKGQPREPQVCTLPPSRDELTKNQVSLSCAVKGFYPSDIAVEWESNGQPENNYKTTPPVLDSDGSFFLVSKLTVDKSRWQQGNVFSCSVMHEALHNHYTQKSLSLSPGK
notes: CSBODY structure: two 175D10 Fab arms; second heavy chain (first heavy entry) and first heavy chain with anti-CD3 scFv (2a5) between CH1 and Fc2
B3: bispecific antibody Y6 (bispecific antibody, human IgG1, kappa)
light: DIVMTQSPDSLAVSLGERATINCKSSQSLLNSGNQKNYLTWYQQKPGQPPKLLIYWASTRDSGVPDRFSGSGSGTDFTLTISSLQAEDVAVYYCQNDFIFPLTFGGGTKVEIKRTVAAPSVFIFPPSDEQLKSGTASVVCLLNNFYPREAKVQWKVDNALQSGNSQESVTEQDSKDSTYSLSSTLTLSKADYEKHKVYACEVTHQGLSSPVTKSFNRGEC
heavy: QVQLQESGPGLVKPSETLSLTCTVSGFSLTRYGVSWIRQPPGKGLEWIGVIWGEGNTNYNPSLKSRVTISKDSSKSQVSLKLSSVTAADTAVYYCARVNFGNALDYWGQGTLVTVSSASTKGPSVFPLAPSSKSTSGGTAALGCLVKDYFPEPVTVSWNSGALTSGVHTFPAVLQSSGLYSLSSVVTVPSSSLGTQTYICNVNHKPSNTKVDKKVEPKSCDKTHTCPPCPAPPVAGPSVFLFPPKPKDTLMISRTPEVTCVVVDVSHEAPEVQFNWYVDGVEVHNAKTKPREEQFNSTFRVVSVLTVVHQDWLNGKEYKCKVSNKGLPAPIEKTISKTKGQPREPQVYTLPPCRDELTKNQVSLWCLVKGFYPSDIAVEWESNGQPENNYKTTPPVLDSDGSFFLYSKLTVDKSRWQQGNVFSCSVMHEALHNHYTQKSLSLSPGK
chain: QVQLVESGGGVVQPGRSLRLSCAASGFTFSTYAMNWVRQAPGKGLEWVARIRSKYNNYATYYADSVKDRFTISRDDSKNTLYLQMNSLRAEDTAVYYCARHGNFGNSYVSWFAYWGQGTLVTVSSGGGGSGGGGSGGGGSQTVVTQEPSLTVSPGGTVTLTCRSSTGAVTTSNYANWVQQKPGQAPRGLIGGTNKRAPGVPARFSGSLLGGKAALTLSGVQPEDEAEYYCALWYSNLWVFGGGTKVEIKGRGRGSDKTHTCPPCPAPPVAGPSVFLFPPKPKDTLMISRTPEVTCVVVDVSHEAPEVQFNWYVDGVEVHNAKTKPREEQFNSTFRVVSVLTVVHQDWLNGKEYKCKVSNKGLPAPIEKTISKTKGQPREPQVCTLPPSRDELTKNQVSLSCAVKGFYPSDIAVEWESNGQPENNYKTTPPVLDSDGSFFLVSKLTVDKSRWQQGNVFSCSVMHEALHNHYTQKSLSLSPGK
notes: YBODY structure: anti-CLDN18.2 Fab arm (2C6.9) and second monomer anti-CD3 scFv (2a5)-Fc
B4: bispecific antibody CS4 (bispecific antibody, human IgG1, kappa)
light: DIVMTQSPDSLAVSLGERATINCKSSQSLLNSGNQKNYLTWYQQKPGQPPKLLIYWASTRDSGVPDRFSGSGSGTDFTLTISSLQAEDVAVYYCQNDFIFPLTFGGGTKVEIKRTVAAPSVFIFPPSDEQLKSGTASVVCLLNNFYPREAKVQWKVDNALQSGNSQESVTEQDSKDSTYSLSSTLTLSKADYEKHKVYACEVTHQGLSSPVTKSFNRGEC
heavy 1: B3 heavy
heavy 2: QVQLQESGPGLVKPSETLSLTCTVSGFSLTRYGVSWIRQPPGKGLEWIGVIWGEGNTNYNPSLKSRVTISKDSSKSQVSLKLSSVTAADTAVYYCARVNFGNALDYWGQGTLVTVSSASTKGPSVFPLAPSSKSTSGGTAALGCLVKDYFPEPVTVSWNSGALTSGVHTFPAVLQSSGLYSLSSVVTVPSSSLGTQTYICNVNHKPSNTKVDKKVEPKSCDKTHTAPAPAPAPAPAPAPAPQVQLVESGGGVVQPGRSLRLSCAASGFTFSTYAMNWVRQAPGKGLEWVARIRSKYNNYATYYADSVKDRFTISRDDSKNTLYLQMNSLRAEDTAVYYCARHGNFGNSYVSWFAYWGQGTLVTVSSGGGGSGGGGSGGGGSQTVVTQEPSLTVSPGGTVTLTCRSSTGAVTTSNYANWVQQKPGQAPRGLIGGTNKRAPGVPARFSGSLLGGKAALTLSGVQPEDEAEYYCALWYSNLWVFGGGTKVEIKGGGGSDKTHTCPPCPAPPVAGPSVFLFPPKPKDTLMISRTPEVTCVVVDVSHEAPEVQFNWYVDGVEVHNAKTKPREEQFNSTFRVVSVLTVVHQDWLNGKEYKCKVSNKGLPAPIEKTISKTKGQPREPQVCTLPPSRDELTKNQVSLSCAVKGFYPSDIAVEWESNGQPENNYKTTPPVLDSDGSFFLVSKLTVDKSRWQQGNVFSCSVMHEALHNHYTQKSLSLSPGK
notes: CSBODY structure: two 2C6.9 Fab arms; second heavy chain (first heavy entry) and first heavy chain with anti-CD3 scFv (2a5) between CH1 and Fc2
B5: bispecific antibody Y7 (bispecific antibody, human IgG1, kappa)
light: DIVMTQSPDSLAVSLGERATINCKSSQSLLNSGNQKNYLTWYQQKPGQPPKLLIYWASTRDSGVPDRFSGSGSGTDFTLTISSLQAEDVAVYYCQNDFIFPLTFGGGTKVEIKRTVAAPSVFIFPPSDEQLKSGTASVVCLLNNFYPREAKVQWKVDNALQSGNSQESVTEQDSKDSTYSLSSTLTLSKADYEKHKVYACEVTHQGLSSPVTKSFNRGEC
heavy: B3 heavy
chain: B3 chain with A49G, A90G, Y229T
notes: YBODY structure: anti-CLDN18.2 Fab arm (2C6.9) and second monomer anti-CD3 scFv (Di6-2)-Fc
B6: IMAB362 monoclonal antibody (antibody, human IgG1, kappa, V domains shown)
VH: QVQLQQPGAELVRPGASVKLSCKASGYTFTSYWINWVKQRPGQGLEWIGNIYPSDSYTNYNQKFKDKATLTVDKSSSTAYMQLSSPTSEDSAVYYCTRSWRGNSFDYWGQGTTLTVSS
VL: DIVMTQSPSSLTVTAGEKVTMSCKSSQSLLNSGNQKNYLTWYQQKPGQPPKLLIYWASTRESGVPDRFTGSGSGTDFTLTISSVQAEDLAVYYCQNDYSYPFTFGSGTKLEIKR
notes: prepared by Wuhan YZY Biopharma; also called Anti-CLDN18.2 monoclonal antibody IMAB362
B7: bispecific antibody Y1 (bispecific antibody, human IgG1, kappa)
light: B1 light
heavy: B1 heavy 1
chain: B3 chain with F112A, V178F
notes: YBODY structure: anti-CLDN18.2 Fab arm (175D10) and second monomer anti-CD3 scFv (2a5ga)-Fc

Each binder was assayed against Human CLDN18.2 (human) (assay: cell-based or functional assay).

Binder | EC50 value for killing effect on NUGC4-hCLDN18.2 cells [nM]
B1 | < 0.01

Molecular target: Human CLDN18.2 (human)
Experiment: cell-based or functional assay
Remark: another data set of the same source

Binder | EC50 (pM), in vitro killing by hPBMC, NUGC4-hCLDN18.2 cells [pM] | EC50 (pM), in vitro killing by hPBMC, NUGC4 cells [pM]
B2 | 2.17 | 
B3 | 1.07 | 7.99
B4 | 0.306 | 0.94
B5 | 0.655 | 5.83

Molecular target: Human CLDN18.2 (human)
Experiment: cell-based or functional assay
Remark: another data set of the same source

Binder | Induction of expression of CD25 EC50 (pM), NUGC4 [pM] | Induction of expression of CD25 EC50 (pM), NUGC4-hCLDN18.2 [pM] | Induction of expression of CD69 EC50 (pM), NUGC4 [pM] | Induction of expression of CD69 EC50 (pM), NUGC4-hCLDN18.2 [pM]
B2 | 216 | 1.21 | 29.5 | 0.389
B3 | 17.2 | 2.32 | 4.87 | 0.592
B4 | 2.38 | 1.19 | 0.446 | 0.196
B5 | 15.7 | 1.78 | 4.13 | 0.465

Each binder was assayed against T1, Human CLDN18.1 (human, UniProt P56856 1-261) (assay: flow cytometry, 293T-hCLDN18.1 cells).
T1 construct: also called hCLDN18.1

Binder | binding result
B1 | no binding

Each binder was assayed against T2, Human CLDN18.2 (human) (assay: flow cytometry, NUGC4-hCLDN18.2 cells).
T2 construct: the cell line is named under assay; also called hCLDN18.2; human CLDN18.2 antigen
Description: (§1) NUGC4 and NUGC4-hCLDN18.2 cells were cultured, digested with pancreatin and centrifuged to collect cells. The cells were collected and resuspended in buffer (PBS+1% FBS) at 1×10⁴ cells/well in a 96-well plate at 100 μL per well. Then the mixture was centrifuged at 350×g for 5 min, and the supernatant was removed.

Binder | EC50 [nM]
B1 | < 50
B6 | 10.8

Molecular target: T2, Human CLDN18.2
Experiment: flow cytometry, NUGC4-hCLDN18.2 cells
Remark: another data set of the same source
Description: as §1

Binder | EC50 [nM]
B2 | 36
B3 | 45.9
B4 | 18.9
B5 | 25.4

What follows are binders tested against T2, Human CLDN18.2 (assay: flow cytometry, NUGC4 cells (endogenous CLDN18.2)).
Description: as §1

Binder | EC50 [nM]
B3 | 184
B4 | 23.4
B5 | 127

These binders were tested against T3, human CD3 antigen (human, UniProt P07766 23-126) (assay: SPR (Biacore T200), human CD3 antigen amine-coupled on CM5 chip, 1:1 fit).
T3 construct: also called Human CD3ϵ
Description: After the detection was completed, data fitting was carried out on the result pattern by adopting Biacore T200 Evaluation Software in a 1:1 binding fitting mode to obtain an equilibrium dissociation constant (KD).

Binder | Kd [nM]
B2 | 3.1
B3 | 5.77
B7 | 1980
B4 | 12
B5 | 4.86
